Experimental data as given in patent US20040014209A1, “Compositions and methods for modulating cell differentiation” (priority 2002, published 2004).

Tests used:
mWnt-3a = mWnt-3a (UniProt P27467); test: cell-based or functional assay
DMZ explants = test: Wnt cDNA overexpression in DMZ explants, Nkx2.5 and TnIc by in situ hybridization; assay type: cell-based, Xenopus; conditions: plasmid cDNA injection into dorsal blastomeres; for Incidence of explants expressing Nkx2.5: stage 23; for Incidence of explants expressing TnIc: stage 30
Excerpt: If the normal function of Wnt antagonism in vivo is to induce cardiogenic mesoderm, then overexpression of Wnt proteins should block cardiogenesis in dorsal mesoderm. Four Wnt genes are known to be expressed during gastrulation: Wnt3A, Wnt5A, Wnt8, and Wnt11. Expression of Wnt8 is normally excluded from the organizer region, whereas Wnt 3A and Wnt11 are expressed dorsally and Wnt5A is found diffusely throughout the ectoderm (Christian and Moon 1993; Ku and Melton 1993; Moon et al. 1993; Du et al. 1995; McGrew et al. 1997). We injected Wnt cDNAs into the two dorsal blastomeres of a four-cell embryo and dissected DMZ explants encompassing the organizer and heart primordia at stage 10 (FIG. 10A). Plasmid injections were performed to avoid perturbation of Nieuwkoop center activity that can occur on expression of certain Wnts before the midblastula transition (Smith and Harland 1991; Sokol et al. 1991). Explants were cultured to either stage 23 or stage 30, at which time they were examined for the expression of Nkx2.5 or TnIc.
(§1) Marginal zone explants were dissected at stage 10. Those explants to be examined by RT-PCR for expression of heart field marker- and heart muscle-specific genes were cultured until sibling embryos were stage 30. In situ hybridization was performed on explants cultured to the equivalent of stage 23 or stage 30. Explants to be scored for formation of beating hearts were maintained until the equivalent of stage 41.
(§2) mRNA was transcribed from pSP35-chd, pSP64-ngn, pCS2-DKK1, pCS2-Crescent, pCS2-GSK3, pCS2-WIF, pCS2-dnXwnt8, pCS2-szl, and pXT7-FrzA using the SP6 and T7 mMessage mMachine kits (Ambion). All cDNAs used encode Xenopus proteins except those for Wnt1 and crescent, which encode chick isoforms. The Xenopus form of crescent was identified while this manuscript was in preparation (Pfeffer et al. 1997; Pera and De Robertis 2000; Shibata et al. 2000) and functions identically to the chick isoform in our assays. Xenopus and chick Crescent share 88% amino acid positional identity within the cysteine-rich domain. Injections were performed in 3% Ficoll in 1×MMR. Embryos were injected equatorially into the two ventral or two dorsal blastomeres at the four-cell stage to target expression to the ventral or dorsal marginal zone. The amount of mRNA injected is given in the text. For plasmid cDNA injections, 75 pg of pCS2-Xwnt3A, pCS2-Xwnt5A, and pCSKA-Xwnt8 and 100 pg of pCS2-cWnt11 supercoiled plasmid constructs were injected.
In situ hybridization was performed according to the protocol of Harland (1991). Digoxygenin-labeled probes were transcribed from the following linearized plasmids: pGEM-XNkx2.5 (XbaI, T7 polymerase) and pBS-TnIc (NotI, T7).

[1] = system: murine embryonic stem (ES) cells; test: Cardiac differentiation of ES cells; assay type: cell-based
Procedure: Full length human Dkk1 (SEQ ID NO: 2) was expressed in host cells and incubated with murine embryonic stem (ES) cells. ES cells were lightly trypsinized, re-plated on petri plastic and cultured for 4 days. During this time, the cells cluster and the mesodermal marker brachyury becomes expressed. Cells were then trypsinized lightly and transferred to gelatin-coated plates with or without recombinant Dkk1 and cultured at 37° C. Cardiomyocyte differentiation of ES cells in the absence of Dkk1 occurs at 13-14 days. ES cells incubated with Dkk1 differentiated into cardiomyocytes at 8-9 days (see FIG. 21).
Cells were grown on gelatin-coated plates without LIF for 2d, then allowed to aggregate on petri dish plastic for 2d, aggregates were then dispersed by mild trypsinization and plated onto gelatin-coated plates with rDkk1- or rC1-conditioned medium or control conditioned medium lacking rDkk for duration of experiment. Presence of beating foci was scored on days 8-14. Instances of beating foci presented as “beating”. Precocious beating sometimes occurred at day 8.

[2] = system: ventral marginal zone (VMZ) explants; test: VMZ explant assay: mRNA injection, cardiac-specific gene expression and beating; assay type: cell-based, Xenopus laevis
Procedure: In a modification of this assay (FIG. 6A), we targeted mRNAs encoding Wnt and BMP antagonists to VMZ tissue by microinjection into the equatorial region of both ventral blastomeres of four-cell stage embryos. VMZ explants were isolated at stage 10, cultured, and assayed at stage 30 by RT-PCR for cardiac-specific gene expression.
Embryos were fertilized in vitro, dejellied in 2% cysteine-HCl (pH 7.8), and maintained in 0.1×MMR. Explant dissections were performed in 0.75×MMR using an eyelash knife. Embryos were staged according to Nieuwkoop and Faber (1994).
as §1, §2
RT-PCR was performed as described in Schneider and Mercola (1999). Twenty-five cycles were performed at an annealing temperature of 55° C., unless otherwise noted. Expression of EF1α was used as a positive control for the reverse transcriptase reaction. The following additional primers were used: XNkx2.5+, […] (SEQ ID NO: 7); XNkx2.5−, […] (SEQ ID NO: 8); M. actin+, […] (SEQ ID NO: 9); M. actin−, […] (SEQ ID NO: 10) (22 cycles); TnIc+, […] (SEQ ID NO: 11); TnIc−, […] (SEQ ID NO: 12); MHCα+, […] GTTCCG (SEQ ID NO: 13); MHCα−, […] (SEQ ID NO: 14); Tbx5+, […] (SEQ ID NO: 15); Tbx5−, […] (SEQ ID NO: 16) (27 cycles); XNkx2.10+, […] (SEQ ID NO: 17); and XNkx2.10−, […] (SEQ ID NO: 18) (59° C., 28 cycles).
A secreted version of the C-terminal fragment was made by fusing the secretory region of human Dkk1 to the C-terminal region cysteine rich region, as described above. This protein is referred to as “C1.” Briefly, the HindIII-Asp718 C-terminal fragment of human Dkk1 (SEQ ID NO: 1) was ligated to the sequence encoding the secretory signal of Dkk1 and cloned into a vector permitting in vitro transcription. As a control, full length Dkk1 was used. RNA was prepared in vitro from the vector as described above. The RNA encoded a polypeptide comprising amino acids 158-266 of SEQ ID NO: 2. The RNA was then injected into noncardiogenic frog embryonic mesoderm, as described above and in Schneider and Mercola (2001) Genes & Dev. 15:304.

APMEE explants = test: APMEE explant culture, cardiac gene expression by RT-PCR; assay type: cell-based, chick; conditions: noggin administration to APMEE explants
stage 7 chick embryos = test: Cell pellet implantation into stage 7 chick embryos in New culture (heart looping, DiI tracing, in situ hybridization); assay type: in vivo

Sequence of mWnt-3a (P27467 19-352 limits assumed): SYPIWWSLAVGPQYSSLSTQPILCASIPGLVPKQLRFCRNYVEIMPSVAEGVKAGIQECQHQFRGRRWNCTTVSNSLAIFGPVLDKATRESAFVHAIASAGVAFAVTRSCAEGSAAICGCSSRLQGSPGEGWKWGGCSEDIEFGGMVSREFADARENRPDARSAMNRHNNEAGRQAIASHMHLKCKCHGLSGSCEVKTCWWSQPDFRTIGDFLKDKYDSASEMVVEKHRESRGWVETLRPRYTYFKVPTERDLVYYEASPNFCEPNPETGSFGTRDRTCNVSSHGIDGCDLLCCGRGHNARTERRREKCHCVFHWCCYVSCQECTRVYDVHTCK

Question: chick Crescent was tested. Which Wnt-induced expression of siamois in Xenopus animal caps (RT-PCR) (mWnt-3a) did it give?
Answer: 3 fold

Question: With Wnt3A as the molecule, how does the “Incidence of explants expressing Nkx2.5” value (DMZ explants) read?
Answer: 45.6%

Question: And the “Incidence of explants expressing TnIc” value (DMZ explants)?
Answer: 24.2%

B1: Dkk1: Full length human Dkk1 (SEQ ID NO: 2), recombinant, expressed in host cells (protein, UniProt O94907 1-266, looked up)
chain: MMALGAAGATRVFVAMVAAALGGHPLLGVSATLNSVLNSNAIKNLPPPLGGAAGHPGSAVSAAPGILYPGGNKYQTIDNYQPYPCAEDEECGTDEYCASPTRGGDAGVQICLACRKRRKRCMRHAMCCPGNYCKNGICVSSDQNHFRGEIEETITESFGNDHSTLDGYSRRTTLSSKMYHTKGQEGSVCLRSSDCASGLCCARHFWSKICKPVLKEGQVCTKHRRKGSHGLEIFQRCYCGEGLSCRIQKDHHQASNSSRLHTCQRH
modifications: full-length
Question: What does the source list for B1?
Answer: myosin light chain (MLC2a) mRNA ([1]; PCR, relative to ES cells not incubated with Dkk1): elevated myosin light chain (MLC2a) mRNA; Beating, Nkx2.5 and contractile protein expression ([1]; by comparison with ES cells not incubated with Dkk1): early beating, an increased number of beating foci, an increased Nkx2.5 expression and increased contractile protein expression; Time to cardiomyocyte differentiation of ES cells ([1]; recombinant Dkk1, 13-14 days in the absence of Dkk1): 8 to 9 days

B2: Noggin: BMP antagonist; noggin-conditioned medium from CHO cells or injected noggin mRNA (protein, UniProt P49011 20-222, looked up)
Noggin: RIDQGGCQHYLHIRPAPSENLPLVDLIEHPDPIYDPKEKDLNETLLRTLMVGHFDPNFMATILPEERLGVEDLGELDLLLRQKPSGAMPAEIKGLEFYEGLQSKKHRLSKKLRRKLQMWLWSQTFCPVLYTWNDLGTRFWPRYVKVGSCYSKRSCSVPEGMVCKAAKSMHLTILRWRCQRRVQQKCAWITIQYPVISECKCSC
Question: B2 was tested. Which “mRNA dose inducing muscle actin” value ([2]; VMZ explants) did it give?
Answer: ≥ 5 pg

Question: And the “mRNA dose at which explants were unable to survive” value ([2]; extreme morphogenetic movements of VMZ explants)?
Answer: > 50 pg

Question: What about the “Heart-specific gene expression (TnIc, MHCα)” value ([2]; mRNA injected ventrally at four-cell stage, VMZ explants, RT-PCR stage 30) of the same molecule?
Answer: did not induce specific markers of cardiogenesis

Question: And the “APMEE explants in which cardiogenesis was blocked (number of explants)” value (APMEE explants)?
Answer: 10 out of 14

B3: Wnt11: expressed from injected pCS2-cWnt11 plasmid (protein, UniProt P49339 25-354, looked up)
Protein Wnt-11: IKWIALSKTPSSLALNQTQHCKQLEGLVVSQVQLCRSNLELMQTIIQAAREVIKTCRKTFSDMRWNCSSIELAPNYLLDLERGTRESAFVYALSAAAISHTIARACTTGDLPGCSCGPIPGETPGPGYRWGGCADNLNYGLIMGSKFSDAPMKMKKSGSQANKLMHLHNSEVGRQVLKASLEMKCKCHGVSGSCSIKTCWKGLQELRDIALDLKNKYLSATKVVHRPMGTRKYLVPKDIDIRPVKETELIYLQSSPDFCMKNEKVGSHGTQDRQCNKTSNGSDSCDLMCCGRGYNPYMDKVVERCHCKYHWCCYVTCKKCERTVERYVCK
Question: Which results are given for B3?
Answer: Incidence of explants expressing Nkx2.5 (DMZ explants): 94.1%; Incidence of explants expressing TnIc (DMZ explants): 83.1%

B4: Wnt5A: expressed from injected pCS2-Xwnt5A plasmid (protein, UniProt P31286 41-380, looked up)
Protein Wnt-5a: VVESSSWWSLGMNPVQMPEVYIIGAQPLCSQLSGLSQGQKKLCQLYQDHMQFIGDGAKTGIKECQYQFRHRRWNCSTVDNTSVFGRVMQIGSRETAFTYAISAAGVVNAVSRACREGELSTCGCSRAARPKDLPRDWLWGGCGDNLDYGYRFAKEFVDAREREKIHQKGSYESSRIMMNLHNNEAGRRAVSTLADVACKCHGVSGSCSLKTCWLQLADFRKVGDHLKEKYDSAGAMKLNTRGKLVQVNNKFNSPTMNDLVYIDPSPDYCVHNESTGSLGTQGRLCNKTSEGMDGCELMCCGRGYDQFKTVQTERCHCKFHWCCYVKCKKCTEVVDQFACK
Question: For B4, which “Incidence of explants expressing Nkx2.5” value (DMZ explants) is on record?
Answer: 97.5%

Question: And the “Incidence of explants expressing TnIc” value (DMZ explants)?
Answer: 85.9%

B5: Wnt8: expressed from injected pCSKA-Xwnt8 plasmid (protein)
chain: AWSVNNFLMTGPKAYLTYSASVAVGAQNGIEECKYQFAWERWNCPESTLQLATHNGLRSATRETSFVHAISSAGVMYTLTRNCSMGDFDNCGCDDSRNGRIGGRGWVWGGCSDNAEFGERISKLFVDGLETGQDARALMNLHNNEAGRLAVKETMKRTCKCHGISGSCSIQTCWLQLAEFRDIGNHLKIKHDQALKLEMDKRKMRSGNSADNRGAIADAFSSVAGSELIFLEDSPDYCLKNISLGLQGTEGRECLQSGKNLSQWERRSCKRLCTDCGLRVEEKKTEIISSCNCKFHWCCTVKCEQCKQVVIKHFCARRERDSNMLNTKRKNRGHRR
Question: Which results are given for B5?
Answer: Incidence of explants expressing Nkx2.5 (DMZ explants): 19.9%; Incidence of explants expressing TnIc (DMZ explants): 41.1%

B6: BMP-4: BMP-4 expressed by implanted 293 cell pellets (protein, UniProt P12644 293-408, looked up)
Bone morphogenetic protein 4: SPKHHSQRARKKNKNCRRHSLYVDFSDVGWNDWIVAPPGYQAFYCHGDCPFPLADHLNSTNHAIVQTLVNSVNSSIPKACCVPTELSAISMLYLDEYDKVVLKNYQEMVVEGCGCR
Question: For B6, which “Embryos with reversed heart looping” value (stage 7 chick embryos; 293 cell pellets in left anterior paraxial mesoderm, stage 7, n=25) is on record?
Answer: 20%

Question: What about the vMHC expression (stage 7 chick embryos; cell pellets in presumptive anterior paraxial mesoderm, in situ hybridization) of the same molecule?
Answer: failed to affect subsequent vMHC expression
